According to publication PMC6685440:

Molecular target: Heavy meromyosin (HMM)
Experiment: far-Western, overlay or dot blot

Binder | fold binding against wild type
GST-tagged NH2-terminal region of slow myosin binding protein-C (Pro/Ala-rich motif, Ig C1 and M-motif), Y247H (domain or fragment) MPEPTKKEENEVPAPAPPPEEPSKEKEAGTTPAKDEEEVSPPSALPPGLGSRALERKDSDWTLVETPPGEEQAKQNANSQLSILFIEKPQGGTVKVGEDITFIAKVKAEDLLRKPTIKWFKGKWMDLASKAGKHLQLKETFERHSRVYTFEMQIIKAKDNFAGNYRCEVTYKDKFDSCSFDLEVHESTGTTPNIDIRSAFKRSGEGQEDAGELDFSGLLKRREVKQQEEEPQVDVWELLKNAKPSEHEKIAFQYGITDLRGMLKRLKRMRREEKKSAAFAKILD | 2 fold
GST-tagged NH2-terminal region of slow myosin binding protein-C (Pro/Ala-rich motif, Ig C1 and M-motif), E248K (domain or fragment) MPEPTKKEENEVPAPAPPPEEPSKEKEAGTTPAKDEEEVSPPSALPPGLGSRALERKDSDWTLVETPPGEEQAKQNANSQLSILFIEKPQGGTVKVGEDITFIAKVKAEDLLRKPTIKWFKGKWMDLASKAGKHLQLKETFERHSRVYTFEMQIIKAKDNFAGNYRCEVTYKDKFDSCSFDLEVHESTGTTPNIDIRSAFKRSGEGQEDAGELDFSGLLKRREVKQQEEEPQVDVWELLKNAKPSEYKKIAFQYGITDLRGMLKRLKRMRREEKKSAAFAKILD | 3.5 fold
